Source: paper PMC3949746

Key:
[1] = molecular target: ribulose-1,5-bisphosphate carboxylase/oxygenase (RuBisCO) large subunit of Serratia sp. ISTD04 (Serratia sp. ISTD04 (endogenous)); experiment: SEC; native RuBisCO purified from Serratia sp. ISTD04, Superdex 200 FPLC gel filtration in buffer A (200 mM Tris-Cl, 10 mM MgCl2, 132 mM KHCO3, 10 mM DTT, ATP, pH 7.8), 0.5 ml/min, 4°C; subunits of the eluted enzyme shown by SDS-PAGE (12%)
[2] = molecular target: ribulose-1,5-bisphosphate carboxylase/oxygenase (RuBisCO) small subunit of Serratia sp. ISTD04 (Serratia sp. ISTD04 (endogenous)); experiment: as above

“ribulose-1,5-bisphosphate carboxylase/oxygenase (RuBisCO) large subunit of Serratia sp. ISTD04 (natural protein)” gave a stoichiometry N [1] of 8.

With “ribulose-1,5-bisphosphate carboxylase/oxygenase (RuBisCO) small subunit of Serratia sp. ISTD04 (natural protein)” the stoichiometry N [2] was 8.
